In PMC5809500:

Legend:
[1] = target: hFcRn coupled to the affinity column (analytical hFcRn affinity chromatography) (UniProt P55899); test: analytical hFcRn affinity chromatography; hFcRn coupled to the column; 50 µl hIgG1 variant (1 mg/ml) injected, eluted by a linear pH gradient from pH 6.0 to 8.8 within 110 min (20 mM MES, 140 mM NaCl / 20 mM Tris/HCl, 140 NaCl)
[2] = target: Truncated monomeric His-tagged hFcRn (three extracellular domains of the hFcRn HC with human β2-microglobulin) (human) (UniProt P55899)
[3] = target: WT anti-NIP hIgG1 (chimeric hIgG1 with mouse lambda light chain, hIgG1 constant HC and a VH specific for NIP) (human | mouse); test: MST; 20 nM NT-647-labelled hIgG1 variant constant, hFcRn titrated (60,000–0.3 nM); PBS, 0.01% Tween 20, pH 7.4; 25 °C; Monolith NT.115
[4] = target: anti-NIP hIgG1-KF (H433K/N434F) (human | mouse); test: as above
[5] = target: anti-NIP hIgG1-LS (M428L/N434S) (human | mouse); test: as above
[6] = target: anti-NIP hIgG1-YTE (M252Y/S254T/T256E) (human | mouse); test: as above
[7] = target: WT anti-NIP hIgG1 (chimeric hIgG1 with mouse lambda light chain, hIgG1 constant HC and a VH specific for NIP) (human | mouse); test: MST; 20 nM NT-647-labelled hIgG1 variant constant, hFcRn titrated (60,000–0.3 nM); 100 mM phosphate buffer, 150 mM NaCl, 0.01% Tween 20, pH 5.5; 25 °C; Monolith NT.115
[8] = target: anti-NIP hIgG1-KF (H433K/N434F) (human | mouse); test: as above
[9] = target: anti-NIP hIgG1-YTE (M252Y/S254T/T256E) (human | mouse); test: as above
[10] = target: anti-NIP hIgG1-YTE/KF (M252Y/S254T/T256E/H433K/N434F) (human | mouse); test: as above

Substance: WT anti-NIP hIgG1 (chimeric hIgG1 with mouse lambda light chain, hIgG1 constant HC and a VH specific for NIP) (antibody)
- pH of the elution peak from the hFcRn column [1]: 7 pH

Substance: anti-NIP hIgG1-YTE/KF (M252Y/S254T/T256E/H433K/N434F) (antibody)
- reduction of recycling of WT anti-hexon hIgG1 (500 nM) by HMEC1-hFcRn cells (HERA, pH 7.4) with 2 µM YTE/KF; the pair blocked is WT hIgG1 and hFcRn [2]: 50%

Substance: Truncated monomeric His-tagged hFcRn (three extracellular domains of the hFcRn HC with human β2-microglobulin) (from UniProt P55899 24-297; P61769 21-119) (receptor)
- Kd [3]: > 60000 nM
- Kd [4]: 3300 nM
- Kd [5]: 7000 nM
- Kd [6]: > 20000 nM
- Kd [7]: 964 nM
- Kd [8]: 53.4 nM
- Kd [9]: 166 nM
- Kd [10]: 9.3 nM
